Assay results published in patent US9696303.

What was measured:
[1] = biological target: HRP-labelled Concavalin A (UniProt P02866); test: capillary displacement of HRP-labelled Concavalin A from immobilised yeast mannoprotein; platform of Example 3; HRP substrate, spectrophotometer
[2] = biological target: HRP-labelled Concavalin A (UniProt P02866); test: capillary displacement of HRP-labelled Concavalin A from immobilised yeast mannoprotein; platform of Example 2; HRP substrate, spectrophotometer
[3] = biological target: HRP-labelled Concavalin A (UniProt P02866); test: capillary displacement of HRP-labelled Concavalin A from immobilised yeast mannoprotein; platform of Example 4; HRP substrate, spectrophotometer

Chain of UniProt P02866 (P02866 30-281 limits assumed): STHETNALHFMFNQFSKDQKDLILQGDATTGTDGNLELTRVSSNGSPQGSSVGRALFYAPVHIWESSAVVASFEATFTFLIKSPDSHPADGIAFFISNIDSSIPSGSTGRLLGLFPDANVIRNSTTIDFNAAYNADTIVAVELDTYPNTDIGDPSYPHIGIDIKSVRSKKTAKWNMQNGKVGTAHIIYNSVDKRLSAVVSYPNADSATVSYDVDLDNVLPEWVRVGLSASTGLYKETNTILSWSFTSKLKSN

absorbance at 446-456 nm (absorbance (446 nm)) [1] | absorbance at 446-456 nm (absorbance (456 nm)) [2] | absorbance at 446-456 nm (absorbance (446 nm)) [3] | absorbance at 446-456 nm (absorbance (448.5 nm)) [1] | Substance
2.22 | 3 | > 4 | – | polystyrene beads with immobilised yeast mannoprotein
– | – | 2.5 | 2.7 | yeast mannoprotein
